Results taken from patent US20210317176A1 (Amgen, published 2021).

What was measured:
beta-klotho [1] = assay: cell-based or functional assay
beta-klotho [2] = assay: cell-based or functional assay; remark: listed apart in the source

B1: FGF21 truncation mutant 1-180 (ligand)
chain: HPIPDSSPLLQFGGQVRQRYLYTDDAQQTEAHLEIREDGTVGGAADQSPESLLQLKALKPGVIQILGVKTSRFLCQRPDGALYGSLHFDPEACSFRELLLEDGYNVYQSEAHGLPLHLPGNKSPHRDPAPRGPARFLPLPGLPPAPPEPPGILAPQPPDVGSSDPLSMVGPSQGRSPSYA
- Efficacy (ELK-luciferase assay, relative to wild-type FGF21) (beta-klotho [1]): 93.2%

B2: FGF21 truncation mutant 1-173 (ligand)
chain: HPIPDSSPLLQFGGQVRQRYLYTDDAQQTEAHLEIREDGTVGGAADQSPESLLQLKALKPGVIQILGVKTSRFLCQRPDGALYGSLHFDPEACSFRELLLEDGYNVYQSEAHGLPLHLPGNKSPHRDPAPRGPARFLPLPGLPPAPPEPPGILAPQPPDVGSSDPLSMVGPSQ
- Efficacy (ELK-luciferase assay, relative to wild-type FGF21) (beta-klotho [1]): 96.1%

B3: FGF21 truncation mutant 1-172 (ligand)
chain: HPIPDSSPLLQFGGQVRQRYLYTDDAQQTEAHLEIREDGTVGGAADQSPESLLQLKALKPGVIQILGVKTSRFLCQRPDGALYGSLHFDPEACSFRELLLEDGYNVYQSEAHGLPLHLPGNKSPHRDPAPRGPARFLPLPGLPPAPPEPPGILAPQPPDVGSSDPLSMVGPS
- Efficacy (ELK-luciferase assay, relative to wild-type FGF21) (beta-klotho [1]): 97.5%

B4: FGF21 truncation mutant 1-171 (ligand)
chain: HPIPDSSPLLQFGGQVRQRYLYTDDAQQTEAHLEIREDGTVGGAADQSPESLLQLKALKPGVIQILGVKTSRFLCQRPDGALYGSLHFDPEACSFRELLLEDGYNVYQSEAHGLPLHLPGNKSPHRDPAPRGPARFLPLPGLPPAPPEPPGILAPQPPDVGSSDPLSMVGP
- Efficacy (ELK-luciferase assay, relative to wild-type FGF21) (beta-klotho [1]): 113%

B5: FGF21 truncation mutant 1-169 (ligand)
chain: HPIPDSSPLLQFGGQVRQRYLYTDDAQQTEAHLEIREDGTVGGAADQSPESLLQLKALKPGVIQILGVKTSRFLCQRPDGALYGSLHFDPEACSFRELLLEDGYNVYQSEAHGLPLHLPGNKSPHRDPAPRGPARFLPLPGLPPAPPEPPGILAPQPPDVGSSDPLSMV
- Efficacy (ELK-luciferase assay, relative to wild-type FGF21) (beta-klotho [1]): 84.9%

B6: FGF21 truncation mutant 1-167 (ligand)
chain: HPIPDSSPLLQFGGQVRQRYLYTDDAQQTEAHLEIREDGTVGGAADQSPESLLQLKALKPGVIQILGVKTSRFLCQRPDGALYGSLHFDPEACSFRELLLEDGYNVYQSEAHGLPLHLPGNKSPHRDPAPRGPARFLPLPGLPPAPPEPPGILAPQPPDVGSSDPLS
- Efficacy (ELK-luciferase assay, relative to wild-type FGF21) (beta-klotho [1]): ~20%

B7: FGF21 truncation mutant 1-166 (ligand)
chain: HPIPDSSPLLQFGGQVRQRYLYTDDAQQTEAHLEIREDGTVGGAADQSPESLLQLKALKPGVIQILGVKTSRFLCQRPDGALYGSLHFDPEACSFRELLLEDGYNVYQSEAHGLPLHLPGNKSPHRDPAPRGPARFLPLPGLPPAPPEPPGILAPQPPDVGSSDPL
- Efficacy (ELK-luciferase assay, relative to wild-type FGF21) (beta-klotho [1]): ~20%

B8: FGF21 truncation mutant 1-165 (ligand)
chain: HPIPDSSPLLQFGGQVRQRYLYTDDAQQTEAHLEIREDGTVGGAADQSPESLLQLKALKPGVIQILGVKTSRFLCQRPDGALYGSLHFDPEACSFRELLLEDGYNVYQSEAHGLPLHLPGNKSPHRDPAPRGPARFLPLPGLPPAPPEPPGILAPQPPDVGSSDP
- Efficacy (ELK-luciferase assay, relative to wild-type FGF21) (beta-klotho [1]): ~10%

B9: FGF21 truncation mutant 2-181 (ligand)
chain: PIPDSSPLLQFGGQVRQRYLYTDDAQQTEAHLEIREDGTVGGAADQSPESLLQLKALKPGVIQILGVKTSRFLCQRPDGALYGSLHFDPEACSFRELLLEDGYNVYQSEAHGLPLHLPGNKSPHRDPAPRGPARFLPLPGLPPAPPEPPGILAPQPPDVGSSDPLSMVGPSQGRSPSYAS
- Efficacy (ELK-luciferase assay, relative to wild-type FGF21) (beta-klotho [1]): 112%

B10: FGF21 truncation mutant 3-181 (ligand)
chain: IPDSSPLLQFGGQVRQRYLYTDDAQQTEAHLEIREDGTVGGAADQSPESLLQLKALKPGVIQILGVKTSRFLCQRPDGALYGSLHFDPEACSFRELLLEDGYNVYQSEAHGLPLHLPGNKSPHRDPAPRGPARFLPLPGLPPAPPEPPGILAPQPPDVGSSDPLSMVGPSQGRSPSYAS
- Efficacy (ELK-luciferase assay, relative to wild-type FGF21) (beta-klotho [1]): 130%

B11: FGF21 truncation mutant 4-181 (ligand)
chain: PDSSPLLQFGGQVRQRYLYTDDAQQTEAHLEIREDGTVGGAADQSPESLLQLKALKPGVIQILGVKTSRFLCQRPDGALYGSLHFDPEACSFRELLLEDGYNVYQSEAHGLPLHLPGNKSPHRDPAPRGPARFLPLPGLPPAPPEPPGILAPQPPDVGSSDPLSMVGPSQGRSPSYAS
- Efficacy (ELK-luciferase assay, relative to wild-type FGF21) (beta-klotho [1]): 117%

B12: FGF21 truncation mutant 1-178 (ligand)
chain: HPIPDSSPLLQFGGQVRQRYLYTDDAQQTEAHLEIREDGTVGGAADQSPESLLQLKALKPGVIQILGVKTSRFLCQRPDGALYGSLHFDPEACSFRELLLEDGYNVYQSEAHGLPLHLPGNKSPHRDPAPRGPARFLPLPGLPPAPPEPPGILAPQPPDVGSSDPLSMVGPSQGRSPS
- Efficacy (ELK-luciferase assay, relative to wild-type FGF21) (beta-klotho [1]): 95%

B13: FGF21 truncation mutant 5-181 (ligand)
chain: DSSPLLQFGGQVRQRYLYTDDAQQTEAHLEIREDGTVGGAADQSPESLLQLKALKPGVIQILGVKTSRFLCQRPDGALYGSLHFDPEACSFRELLLEDGYNVYQSEAHGLPLHLPGNKSPHRDPAPRGPARFLPLPGLPPAPPEPPGILAPQPPDVGSSDPLSMVGPSQGRSPSYAS
- Efficacy (ELK-luciferase assay, relative to wild-type FGF21) (beta-klotho [1]): 120%

B14: FGF21 truncation mutant 7-181 (ligand)
chain: SPLLQFGGQVRQRYLYTDDAQQTEAHLEIREDGTVGGAADQSPESLLQLKALKPGVIQILGVKTSRFLCQRPDGALYGSLHFDPEACSFRELLLEDGYNVYQSEAHGLPLHLPGNKSPHRDPAPRGPARFLPLPGLPPAPPEPPGILAPQPPDVGSSDPLSMVGPSQGRSPSYAS
- Efficacy (ELK-luciferase assay, relative to wild-type FGF21) (beta-klotho [1]): 74.2%

B15: FGF21 truncation mutant 8-181 (ligand)
chain: PLLQFGGQVRQRYLYTDDAQQTEAHLEIREDGTVGGAADQSPESLLQLKALKPGVIQILGVKTSRFLCQRPDGALYGSLHFDPEACSFRELLLEDGYNVYQSEAHGLPLHLPGNKSPHRDPAPRGPARFLPLPGLPPAPPEPPGILAPQPPDVGSSDPLSMVGPSQGRSPSYAS
- Efficacy (ELK-luciferase assay, relative to wild-type FGF21) (beta-klotho [1]): 24.9%

B16: FGF21 truncation mutant 9-181 (ligand)
chain: LLQFGGQVRQRYLYTDDAQQTEAHLEIREDGTVGGAADQSPESLLQLKALKPGVIQILGVKTSRFLCQRPDGALYGSLHFDPEACSFRELLLEDGYNVYQSEAHGLPLHLPGNKSPHRDPAPRGPARFLPLPGLPPAPPEPPGILAPQPPDVGSSDPLSMVGPSQGRSPSYAS
- Efficacy (ELK-luciferase assay, relative to wild-type FGF21) (beta-klotho [1]): 12.5%

B17: FGF21 truncation mutant 1-177 (ligand)
chain: HPIPDSSPLLQFGGQVRQRYLYTDDAQQTEAHLEIREDGTVGGAADQSPESLLQLKALKPGVIQILGVKTSRFLCQRPDGALYGSLHFDPEACSFRELLLEDGYNVYQSEAHGLPLHLPGNKSPHRDPAPRGPARFLPLPGLPPAPPEPPGILAPQPPDVGSSDPLSMVGPSQGRSP
- Efficacy (ELK-luciferase assay, relative to wild-type FGF21) (beta-klotho [1]): 112%

B18: human FGF21 (wild-type mature FGF21 polypeptide) (ligand)
chain: HPIPDSSPLLQFGGQVRQRYLYTDDAQQTEAHLEIREDGTVGGAADQSPESLLQLKALKPGVIQILGVKTSRFLCQRPDGALYGSLHFDPEACSFRELLLEDGYNVYQSEAHGLPLHLPGNKSPHRDPAPRGPARFLPLPGLPPAPPEPPGILAPQPPDVGSSDPLSMVGPSQGRSPSYAS
- EC50 (ELK-luciferase assay) (beta-klotho [2]): 0.4 nM

B19: FGF21 truncation mutant 1-176 (ligand)
chain: HPIPDSSPLLQFGGQVRQRYLYTDDAQQTEAHLEIREDGTVGGAADQSPESLLQLKALKPGVIQILGVKTSRFLCQRPDGALYGSLHFDPEACSFRELLLEDGYNVYQSEAHGLPLHLPGNKSPHRDPAPRGPARFLPLPGLPPAPPEPPGILAPQPPDVGSSDPLSMVGPSQGRS
- Efficacy (ELK-luciferase assay, relative to wild-type FGF21) (beta-klotho [1]): 105%

B20: FGF21 truncation mutant 1-174 (ligand)
chain: HPIPDSSPLLQFGGQVRQRYLYTDDAQQTEAHLEIREDGTVGGAADQSPESLLQLKALKPGVIQILGVKTSRFLCQRPDGALYGSLHFDPEACSFRELLLEDGYNVYQSEAHGLPLHLPGNKSPHRDPAPRGPARFLPLPGLPPAPPEPPGILAPQPPDVGSSDPLSMVGPSQG
- Efficacy (ELK-luciferase assay, relative to wild-type FGF21) (beta-klotho [1]): 105%
